Experiments:
Experiment in all cases: pull-down; GST-VRK3 (wild type, S108A, S108E) incubated overnight with recombinant VHR or recombinant phospho-ERK2 in Triton lysis buffer with 1 mM DTT and 10% glycerol, then glutathione-sepharose 4B beads at 4 °C for 1 h
Conditions in all cases: both partners purified
[1] = molecular target: T1, GST-VRK3^S108A (human, UniProt Q8IV63 1-474, S108A)
T1 construct: vaccinia-related kinase 3 (VRK3), human; S108A made by site-directed mutagenesis in pGEX4T-3; pGEX4T-3 vector; also called S108A mutant VRK3; source: E. coli BL21 (DE3) pLysS, purified (glutathione-sepharose 4B)
T1 sequence (looked up): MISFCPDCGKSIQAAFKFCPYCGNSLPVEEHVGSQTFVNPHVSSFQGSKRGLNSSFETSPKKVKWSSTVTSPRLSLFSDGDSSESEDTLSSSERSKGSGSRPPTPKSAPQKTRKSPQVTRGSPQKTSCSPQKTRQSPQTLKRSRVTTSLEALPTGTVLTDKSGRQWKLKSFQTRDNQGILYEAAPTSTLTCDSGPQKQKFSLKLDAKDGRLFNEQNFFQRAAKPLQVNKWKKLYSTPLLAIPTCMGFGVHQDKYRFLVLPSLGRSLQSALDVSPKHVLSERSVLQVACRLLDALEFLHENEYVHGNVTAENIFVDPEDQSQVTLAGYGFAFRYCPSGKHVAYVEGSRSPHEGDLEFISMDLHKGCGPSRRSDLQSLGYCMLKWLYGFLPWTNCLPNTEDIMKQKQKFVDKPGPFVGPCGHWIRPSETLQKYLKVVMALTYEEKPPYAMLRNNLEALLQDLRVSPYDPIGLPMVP

[2] = molecular target: T2, GST-tagged recombinant full-length VRK3 (vaccinia-related kinase 3), wild type (human, UniProt Q8IV63 1-474)
T2 construct: vaccinia-related kinase 3 (VRK3), human; coding region amplified by RT-PCR from mRNA of human cell lines and cloned into pGEX4T-3; full length (fragment F3 ends at amino acid 474); pGEX4T-3 vector; also called GST-VRK3; VRK3^WT; source: E. coli BL21 (DE3) pLysS, purified (glutathione-sepharose 4B)
T2 sequence (looked up): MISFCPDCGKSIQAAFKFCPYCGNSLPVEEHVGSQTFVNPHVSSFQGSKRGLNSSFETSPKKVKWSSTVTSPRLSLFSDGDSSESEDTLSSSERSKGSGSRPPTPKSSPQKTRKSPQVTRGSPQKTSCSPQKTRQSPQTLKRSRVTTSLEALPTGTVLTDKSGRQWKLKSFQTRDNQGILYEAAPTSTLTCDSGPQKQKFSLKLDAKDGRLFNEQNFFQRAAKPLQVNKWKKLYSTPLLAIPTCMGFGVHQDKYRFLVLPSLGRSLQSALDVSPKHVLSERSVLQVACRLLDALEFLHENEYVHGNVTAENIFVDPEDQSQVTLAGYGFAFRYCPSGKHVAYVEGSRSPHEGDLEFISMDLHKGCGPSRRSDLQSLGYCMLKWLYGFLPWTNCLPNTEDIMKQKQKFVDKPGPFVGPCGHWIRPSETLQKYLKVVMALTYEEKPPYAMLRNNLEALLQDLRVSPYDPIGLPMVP

[3] = molecular target: T3, GST-VRK3^S108E (human, UniProt Q8IV63 1-474, S108E)
T3 construct: vaccinia-related kinase 3 (VRK3), human; S108E (phosphomimetic) made by site-directed mutagenesis in pGEX4T-3; pGEX4T-3 vector; also called S108E mutant VRK3; phosphomimetic mutant of VRK3; source: E. coli BL21 (DE3) pLysS, purified (glutathione-sepharose 4B)
T3 sequence (looked up): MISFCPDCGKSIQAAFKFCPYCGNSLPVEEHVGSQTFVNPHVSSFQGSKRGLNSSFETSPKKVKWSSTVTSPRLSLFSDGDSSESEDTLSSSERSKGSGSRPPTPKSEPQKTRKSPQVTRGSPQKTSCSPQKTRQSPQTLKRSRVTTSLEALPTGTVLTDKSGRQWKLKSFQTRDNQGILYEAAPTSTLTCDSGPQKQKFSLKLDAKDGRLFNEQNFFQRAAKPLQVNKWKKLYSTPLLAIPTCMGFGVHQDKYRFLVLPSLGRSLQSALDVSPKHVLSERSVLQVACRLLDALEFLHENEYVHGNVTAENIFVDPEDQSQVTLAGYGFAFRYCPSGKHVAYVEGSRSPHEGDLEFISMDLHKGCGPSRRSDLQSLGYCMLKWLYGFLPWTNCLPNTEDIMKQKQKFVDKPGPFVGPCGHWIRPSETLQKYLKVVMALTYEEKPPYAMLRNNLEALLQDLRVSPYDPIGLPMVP

Measured: binding result

B1: recombinant VHR (vaccinia H1-related phosphatase) (enzyme, human, UniProt P51452 1-185, looked up)
chain: MSGSFELSVQDLNDLLSDGSGCYSLPSQPCNEVTPRIYVGNASVAQDIPKLQKLGITHVLNAAEGRSFMHVNTNANFYKDSGITYLGIKANDTQEFNLSAYFERAADFIDQALAQKNGRVLVHCREGYSRSPTLVIAYLMMRQKMDVKSALSIVRQNREIGPNDGFLAQLCQLNDRLAKEGKLKP
notes: vaccinia H1-related (VHR) phosphatase; coding region amplified by RT-PCR from mRNA of human cell lines (SH-SY5Y, HEK293A, HeLa); source: E. coli BL21 (DE3) pLysS, purified
binds: [1] | [2] | [3]

Reference: article PMC4922050, “Stress-induced nuclear translocation of CDK5 suppresses neuronal death by downregulating ERK activation via VRK3 phosphorylation” (Scientific Reports, 2016)
